Test results reported in US20250257130A1 (NONA BIOSCIENCES SUZHOU, published 2025).

What was measured:
[1] = molecular target: T1, human ROR1 on cells (HEK293T-hROR1, PANC-1, A549) (human, UniProt Q01973 30-937); assay: flow cytometry, PANC-1 cells
T1 construct: whole, on cells; one molecule for the three cell lines; also called huROR1; cell surface ROR1
Method: (§1) In brief, anti-ROR1 antibodies were serially diluted in staining buffer (PBS containing 2% FBS). Antibody solution was incubated with 1×10⁵ cells at 4° C. for 1 hour. […] After 1-hour incubation at 4° C., cells were washed twice with staining buffer and subjected to flow cytometry. PR000374 (Bench marker 1) and non-relevant IgG isotype control (Crownbio) were used as positive and negative controls, respectively.

[2] = molecular target: T2, cynomolgus ROR1 on CHO-K1-cynoROR1 cells (cynomolgus monkey, UniProt A0A2K5WTX7 30-937); assay: flow cytometry, CHO-K1-cynoROR1 cells
T2 construct: whole, on cells
Method: (§2) Binding of recombinant anti-ROR1 antibodies to human or cynomolgus ROR1-overexpressing cells was tested by flow cytometry. In this example, ROR1-expressing cell lines are HEK293T cell lines that had been transfected to express human ROR1 on the surface (HEK293T-hu ROR1, KYINNO BIOTECHNOLOGY CO., LTD, Catalog #KC-1018), CHO-K1 cell lines that had been transfected to express cynomolgus ROR1 (CHOK1-cyno ROR1), PANC-1 (ATCC, catalog: CRL-1469) or A549 cell lines (Shanghai Institute of Biochemistry and Cell Biology, Chinese Academy of Sciences).
as §1

[3] = molecular target: T1, human ROR1 on cells (HEK293T-hROR1, …); assay: flow cytometry on PANC-1 cells, MFI (FITC-A Median)
Method: as §2, §1

[4] = molecular target: T2, cynomolgus ROR1 on CHO-K1-cynoROR1 cells; assay: flow cytometry on CHOK1-cynoROR1 cells, MFI (APC-A Median) [middle panel, letter not given]
Method: as §2, §1

[5] = molecular target: T1, human ROR1 on cells (HEK293T-hROR1, …); assay: flow cytometry on PANC-1 cells, MFI (FITC-A Median) [continued) C]
Method: as §2, §1

[6] = molecular target: T3, Human ROR1-ECD-his (Acro Biosystems RO1-H522y) (human, UniProt Q01973 30-406); assay: ELISA, coated hu-ROR1-ECD-his
T3 construct: extracellular domain; bought protein; also called hROR1-ECD-his; hu-ROR1-ECD-his

[7] = molecular target: T2, cynomolgus ROR1 on CHO-K1-cynoROR1 cells; assay: flow cytometry, CHO-K1-cynoROR1 cells; remark: listed apart in the source
Method: as §1

[8] = molecular target: T3, Human ROR1-ECD-his (Acro Biosystems …); assay: BLI, ROR1-His on HIS1K sensor, antibody in solution
Procedure, shortened: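 His-tagged ROR1 (20 nM) captured on HIS1K biosensors; serially diluted antibodies in kinetics buffer as analyte. Association and dissociation rate constants measured by Octet biolayer interferometry, sensors regenerated with 10 mM glycine-HCl pH 1.5 between cycles.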

[9] = molecular target: T4, hu-ROR2-ECD-his (Acrobiosystems RO2-H52E5) (human, UniProt Q01974 34-403); assay: ELISA, plate coated with hu-ROR2-his at 1 µg/mL
T4 construct: extracellular domain; bought protein; also called Human ROR2 his-tagged protein; Human ROR2, His Tag
Procedure, shortened: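 Plates were coated overnight at 4 °C with 1 μg/mL human ROR2-ECD-his and blocked with 2% BSA. Serially diluted anti-ROR1 antibodies were bound for 1 h at 37 °C, then secondary antibody for 1 h at 37 °C. Detection was by TMB (~5 min), stopped with H2SO4, and read at 450/570 nm.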

[10] = molecular target: T1, human ROR1 on cells (HEK293T-hROR1, …); assay: flow cytometry, HEK293T-hROR1 cells; HEK293T-hROR1 cells (ROR1 overexpressed), FACS: binds
Method: as §1

[11] = molecular target: T1, human ROR1 on cells (HEK293T-hROR1, …); assay: flow cytometry, PANC-1 cells; remark: listed apart in the source
Procedure, shortened: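 Anti-ROR1 antibodies, serially diluted in PBS with 2% FBS, were incubated with 1×10⁵ PANC-1 cells for 1 hour at 4° C. A further 1-hour incubation at 4° C followed, then two washes and flow cytometry. A benchmark anti-ROR1 antibody and an isotype IgG served as positive and negative controls.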

[12] = molecular target: T4, hu-ROR2-ECD-his (Acrobiosystems …); assay: BLI, antibody on AHC sensor, ROR2-His in solution
Method: In the example, binding kinetics of anti-ROR1 antibodies to soluble ROR2 protein were analyzed by using Bio-Layer Interferometry (BLI) analysis on Fortebio Octet Red384 instrument (Fortebio). […] The captured biosensors were then dipped in wells containing 2-fold serial dilutions of antigen proteins to detect association signals, followed by dissociation steps in wells containing 1× kinetic buffer. Human ROR2 his-tagged protein (Acrobiosystems, #RO2-H52E5) was diluted from 600 nM to 37.5 nM; the association phase was 180 seconds, and the dissociation phase was 180 seconds. The sensorgrams were recorded and the reference signals were subtracted before curve fitting using ForteBio Data Analysis 11.0 software. Association rates (kₒₙ) and dissociation rates (kdis) were calculated using a simple one-to-one Langmuir binding model. The equilibrium dissociation constant (KD) was calculated as the ratio of kdis/kₒₙ.

[13] = molecular target: T3, Human ROR1-ECD-his (Acro Biosystems …); assay: BLI, antibody on AHC sensor, ROR1-His 5-80 nM in solution
Method: The captured biosensors were then dipped in wells containing 2-fold serial dilutions of antigen proteins to detect association signals, followed by dissociation steps in wells containing 1× kinetic buffer. Human ROR1 hits-tagged protein (Acrobiosystems, #RO1-H522y) was diluted from 80 nM to 5 nM; the association phase was 180 seconds, and the dissociation phase was 600 seconds. The sensorgrams were recorded and the reference signals were subtracted before curve fitting using ForteBio Data Analysis 11.0 software. Association rates (kₒₙ) and dissociation rates (kdis) were calculated using a simple one-to-one Langmuir binding model. The equilibrium dissociation constant (KD) was calculated as the ratio of kdis/kₒₙ.

[14] = molecular target: T1, human ROR1 on cells (HEK293T-hROR1, …); assay: flow cytometry on PANC-1 cells, MFI (APC-A Median)
Method: as §2, §1

[15] = molecular target: T3, Human ROR1-ECD-his (Acro Biosystems …); assay: BLI in-tandem, row = 1st Ab; competitor (2nd Ab): PR000374
Description: (§3) To determine if anti-ROR1 antibodies bind to human ROR1 on different or approximate binding epitopes, the ForteBio Octet® RED96e platform was used to perform epitope competition experiments on the anti-ROR1 antibodies. Human ROR1 protein (Acrobiosystems, #RO1-H522y) was biotinylated and then captured onto SA biosensors (ForteBio, #18-5020) to reach loading level of 0.3-0.4 nm. The in-tandem competition assay format was applied and it contains two association steps. Firstly, the antigen-loaded biosensors bind to each antibody (a.k.a, First antibody, 1st Ab) with a saturating concentration of 200 nM for 180 seconds to reach equilibrium and then secondly bind to the competing antibodies (a.k.a, Second antibody, 2nd Ab) of 200 nM for 180 seconds. The second binding signals were recorded as the 100% signal of each antibody when the first antibodies were replaced by kinetics buffer. All the binding data were analyzed using ForteBio Data Analysis 11.0 software. The inhibition rate is calculated by the following formula: […]

[16] = molecular target: T3, Human ROR1-ECD-his (Acro Biosystems …); assay: BLI in-tandem, row = 1st Ab; competitor (2nd Ab): PR005338
Description: as §3

[17] = molecular target: T3, Human ROR1-ECD-his (Acro Biosystems …); assay: BLI in-tandem, row = 1st Ab; competitor (2nd Ab): PR005340
Description: as §3

[18] = molecular target: T3, Human ROR1-ECD-his (Acro Biosystems …); assay: BLI in-tandem, row = 1st Ab; competitor (2nd Ab): PR007417
Description: as §3

[19] = molecular target: T3, Human ROR1-ECD-his (Acro Biosystems …); assay: BLI in-tandem, row = 1st Ab; competitor (2nd Ab): PR007424
Description: as §3

[20] = molecular target: T1, human ROR1 on cells (HEK293T-hROR1, …); assay: flow cytometry on PANC-1 cells, MFI (Median-APC) [top panel]
[21] = molecular target: T2, cynomolgus ROR1 on CHO-K1-cynoROR1 cells; assay: flow cytometry on CHOK1-cynoROR1 cells, MFI (APC-A Median) [top panel]
Method: as §2, §1

[22] = molecular target: T1, human ROR1 on cells (HEK293T-hROR1, …); assay: flow cytometry on PANC-1 cells, MFI (Median-APC) [bottom panel, letter not given]
[23] = molecular target: T1, human ROR1 on cells (HEK293T-hROR1, …); assay: flow cytometry on PANC-1 cells, MFI (Median-APC) [middle panel, letter not given]

T4 sequence (Q01974 34-403): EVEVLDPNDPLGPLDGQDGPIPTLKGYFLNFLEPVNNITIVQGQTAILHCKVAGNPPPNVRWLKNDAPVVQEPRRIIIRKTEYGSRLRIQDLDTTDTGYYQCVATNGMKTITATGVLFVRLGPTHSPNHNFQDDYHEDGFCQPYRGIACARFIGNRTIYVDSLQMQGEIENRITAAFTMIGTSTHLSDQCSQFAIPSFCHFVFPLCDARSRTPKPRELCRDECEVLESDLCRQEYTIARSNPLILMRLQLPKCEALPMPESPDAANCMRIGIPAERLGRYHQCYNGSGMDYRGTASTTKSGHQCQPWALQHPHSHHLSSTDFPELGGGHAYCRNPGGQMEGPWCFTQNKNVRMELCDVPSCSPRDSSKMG
T3 sequence (Q01973 30-406): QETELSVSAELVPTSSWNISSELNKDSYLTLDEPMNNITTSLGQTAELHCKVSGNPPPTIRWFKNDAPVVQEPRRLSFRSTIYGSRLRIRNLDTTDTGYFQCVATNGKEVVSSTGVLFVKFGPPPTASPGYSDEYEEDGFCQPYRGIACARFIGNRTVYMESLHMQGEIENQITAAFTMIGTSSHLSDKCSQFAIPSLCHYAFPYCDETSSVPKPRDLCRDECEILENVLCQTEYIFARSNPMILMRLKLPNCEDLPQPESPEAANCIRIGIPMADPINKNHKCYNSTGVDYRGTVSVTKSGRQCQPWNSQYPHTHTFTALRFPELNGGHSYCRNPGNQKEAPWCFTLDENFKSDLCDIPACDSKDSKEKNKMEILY
T1 sequence (Q01973 30-937): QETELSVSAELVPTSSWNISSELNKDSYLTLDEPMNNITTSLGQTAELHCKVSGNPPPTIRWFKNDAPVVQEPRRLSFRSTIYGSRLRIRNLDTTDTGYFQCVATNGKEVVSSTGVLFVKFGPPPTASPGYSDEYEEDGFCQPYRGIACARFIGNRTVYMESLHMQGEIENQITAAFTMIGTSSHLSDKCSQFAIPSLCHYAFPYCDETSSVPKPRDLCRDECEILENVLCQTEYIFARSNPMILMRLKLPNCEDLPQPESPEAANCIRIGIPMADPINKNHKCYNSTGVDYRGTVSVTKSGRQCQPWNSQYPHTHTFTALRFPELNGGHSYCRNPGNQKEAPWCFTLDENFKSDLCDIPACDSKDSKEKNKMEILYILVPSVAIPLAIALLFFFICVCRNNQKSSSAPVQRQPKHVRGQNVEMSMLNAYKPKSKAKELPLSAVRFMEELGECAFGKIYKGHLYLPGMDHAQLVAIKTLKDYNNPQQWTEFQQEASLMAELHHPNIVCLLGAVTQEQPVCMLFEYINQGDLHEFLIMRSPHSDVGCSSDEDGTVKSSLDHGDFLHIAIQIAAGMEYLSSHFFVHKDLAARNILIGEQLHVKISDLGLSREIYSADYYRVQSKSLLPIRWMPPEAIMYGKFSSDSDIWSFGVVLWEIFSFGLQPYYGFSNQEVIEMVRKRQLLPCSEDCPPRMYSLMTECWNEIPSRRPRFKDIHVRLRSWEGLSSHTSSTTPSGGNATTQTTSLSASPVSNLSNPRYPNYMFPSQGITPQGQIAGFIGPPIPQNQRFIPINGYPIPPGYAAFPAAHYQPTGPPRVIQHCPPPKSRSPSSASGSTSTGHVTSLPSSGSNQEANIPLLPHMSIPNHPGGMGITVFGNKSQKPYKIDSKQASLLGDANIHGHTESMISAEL

| Binder | Max [1] | Max [2] | EC50 (read off the curve) [3] [nM] | EC50 (read off the curve) [4] [nM] | EC50 (read off the curve) [5] [nM] | binding result [12] | Kd [13] [nM] | koff [13] [s⁻¹] | kon [13] [M⁻¹ s⁻¹] | Inhibition (%) [15] [%] | Inhibition (%) [16] [%] | Inhibition (%) [17] [%] | Inhibition (%) [18] [%] | Inhibition (%) [19] [%] | further results |
| --- | --- | --- | --- | --- | --- | --- | --- | --- | --- | --- | --- | --- | --- | --- | --- |
| PR005344 (antibody, human IgG1, V domains shown, HCAb (heavy chain-only, human IgG1 Fc), no light chain) VH: EVQLVESGGGLVKPGGSLRLSCAASGFTFSDYYMSWIRQAPGKGLEWISYISNSSSSISYANSVKGRFTVSRDNAKNSLYLQMNSLRAEDTALYYCARSPRGAFYEDFDYWGQGTLVTVSS | 12400 | 30700 | ~20 | ~10 | – | – | – | – | – | – | – | – | – | – | – |
| PR303189 (antibody, human IgG1, V domains shown, HCAb (heavy chain-only, human IgG1 Fc), no light chain) VH: EVQLVESGGGLVKPGGSLRLSCAASGFNLSDSYMSWIRQAPGKGLEWVSCISSSGSTIYYADSVKGRFTVSRDNAKNSLYLQMNHLRAEDTALYYCARDCVIGIRDDSDIWGQGTMVTVSS | – | – | – | – | – | – | – | – | – | – | – | – | – | – | EC50 [6]: 0.002 µg/mL; EC50 [7]: 7.53 µg/mL; MAX(MFI) [7]: 5.3e+06 MFI; Kd [8]: 0.623 nM; koff [8]: 0.00403 s⁻¹; kon [8]: 6.46e+06 M⁻¹ s⁻¹; binding result [9]: no binding (tested: about 15 µg/ml); EC50 [10]: 0.085 µg/mL |
| PR005340 (antibody, human IgG1, V domains shown, HCAb (heavy chain-only, human IgG1 Fc), no light chain) VH: EVQLVESGGGLVKPGGSLRLSCAASGFTFSDYYMSWIRQAPGKGLEWISYISSSGSTIHYADSVKGRFTISRDNAKNSLYLQMNSLRAEDTAIYYCARDIPSSSSDWVSLQFDYWGQGTLVTVSS | 17500 | 36400 | – | – | – | no binding (tested: 37.5-600 nM) | 1.2 | 0.000171 | 143000 | -0.17 | 106 | 109 | 109 | 106 | TOP [11]: 84900; EC50 (read off the curve) [14]: ~2 nM; EC50 (read off the curve) [20]: ~3 nM; EC50 (read off the curve) [21]: ~3 nM; EC50 (read off the curve) [22]: ~2 nM; EC50 (read off the curve) [23]: ~2 nM |
| PR005338 (antibody, human IgG1, V domains shown, HCAb (heavy chain-only, human IgG1 Fc), no light chain) VH: EVQLVESGGGLVKPGGSLRLSCAASGFTFSDYYMSWIRQAPGKGLEWISYISSSGTTIHYADSVKGRFTISRDNAKNSLYLQMNSLRTEDTAVYYCARDAPSSNSDWVSLQFDYWGQGTLVTVSS | 12700 | 33300 | ~7 | ~8 | – | no binding (tested: 37.5-600 nM) | 2.4 | 0.000316 | 132000 | -3.02 | 104 | 108 | 108 | 102 | – |

More lines, main results first:

| Max [1] | Max [2] | EC50 (read off the curve) [3] [nM] | EC50 (read off the curve) [4] [nM] | EC50 (read off the curve) [5] [nM] | binding result [12] | Kd [13] [nM] | koff [13] [s⁻¹] | kon [13] [M⁻¹ s⁻¹] | Inhibition (%) [15] [%] | Inhibition (%) [16] [%] | Inhibition (%) [17] [%] | Inhibition (%) [18] [%] | Inhibition (%) [19] [%] | Binder | further results |
| --- | --- | --- | --- | --- | --- | --- | --- | --- | --- | --- | --- | --- | --- | --- | --- |
| 27100 | – | – | – | ~10 | – | – | – | – | – | – | – | – | – | PR005349 (antibody, human IgG1, V domains shown, HCAb (heavy chain-only, human IgG1 Fc), no light chain) VH: EVQLVESGGGLVKPGGSLRLSCAASGFTFSDYYMSWIRQAPGKGLEWISYISNSSSSISYANSVKGRFTVSRDNAKNSLYLQMNSLRAEDTALYYCARSPRSAFYEDFDYWGQGTLVTVSS | – |
| 23300 | – | – | – | ~9 | – | – | – | – | – | – | – | – | – | PR005352 (antibody, human IgG1, V domains shown, HCAb (heavy chain-only, human IgG1 Fc), no light chain) VH: EVQLVESGGGLVKPGGSLRLSCAASGFTFSDYYMSWIRQAPGKGLEWISYISSSGGSIYYADSVKGRFTISRDNAKNSLYLQMNRLRAEDTALYYCARTPPSSNNWYEDFDYWGQGALVTVSS | – |
